Test results: US6627193

B1: TLCK-inactivated RgpB (protein)
chain: YTPVEEKENGRMIVIVAKKYEGDIKDFVDWKNQRGLRTEVKVAEDIASPVTANAIQQFVKQEYEKEGNDLTYVLLVGDHKDIPAKITPGIKSDQVYGQIVGNDHYNEVFIGRFSCESKEDLKTQIDRTIHYERNITTEDKWLGQALCIASAEGGPSADNGESDIQHENVIANLLTQYGYTKIIKCYDPGVTPKNIIDAFNGGISLVNYTGHGSETAWGTSHFGTTHVKQLTNSNQLPFIFDVACVNGDFLFSMPCFAEALMRAQKDGKPTGTVAIIASTIDQYWAPPMRGQDEMNEILCEKHPNNIKRTFGGVTMNGMFAMVEKYKKDGENMLDTWTVFGDPSLLVRTLVPTEMQVTAPANISASAQTFEVACDYNGAIATLSDDGDMVGTAIVKDGKAIIKLNESIADETNLTLTVVGYNKVTVIKDVKVEGTSIADVANDKPYTVAVSGKTITVESPAAGLTIFDMNGRRVATAKNRMVFEAQNGVYAVRIATEGKTYTEKVIVK
B2: RgpB (50 kDa gingipain R, RGP-2) from Porphyromonas gingivalis HG66 (protein)
chain: B1 chain

Target: purified human protein C (PC), P04070
Sequence (P04070 whole entry, looked up): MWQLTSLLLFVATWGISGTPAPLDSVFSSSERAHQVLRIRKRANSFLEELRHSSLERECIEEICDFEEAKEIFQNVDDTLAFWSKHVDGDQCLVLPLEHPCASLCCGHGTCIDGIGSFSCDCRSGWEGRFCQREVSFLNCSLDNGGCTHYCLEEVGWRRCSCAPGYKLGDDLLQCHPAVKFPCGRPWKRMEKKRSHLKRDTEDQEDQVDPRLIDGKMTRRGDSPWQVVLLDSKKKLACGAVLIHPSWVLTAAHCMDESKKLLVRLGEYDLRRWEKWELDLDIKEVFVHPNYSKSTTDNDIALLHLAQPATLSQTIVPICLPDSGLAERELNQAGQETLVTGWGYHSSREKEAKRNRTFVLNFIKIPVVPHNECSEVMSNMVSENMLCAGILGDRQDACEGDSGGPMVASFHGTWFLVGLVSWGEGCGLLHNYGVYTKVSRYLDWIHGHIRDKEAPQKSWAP

| Protein | APC activity generated from purified PC | APC activity generated from purified PC (amidolytic assay with Boc-Leu-Ser-Thr-Arg-MCA) | APC activity generated in human plasma | Km (activation of human protein C) [µM] | kcat (activation of human protein C) [s⁻¹] | kcat/Km (activation of human protein C) [M⁻¹ s⁻¹] |
| --- | --- | --- | --- | --- | --- | --- |
| B1 | TLCK-treated enzymes did not induce PC activation | – | – | – | – | – |
| B2 | – | Both proteinases generated APC linearly in a dose- and incubation time-dependent manner | with RgpB negligible APC was detected | 3.8 | 0.015 | 3900 |
